The results in this text go back to PMC8933513 (2022).

By Kd is commonly meant the concentration at which binding is half-saturated. Higher therefore signals lower affinity.

For test [1], the target named is hAPN ectodomain K379A mutant (human) (UniProt P15144). The experiment in a line: SPR; BIAcore X-100, room temperature; hAPN/pAPN WT or mutant immobilised on CM5 chips by amine coupling; serially diluted PDCoV RBD WT or mutant flowed over in HEPES buffer (0.01 M HEPES, 0.15 M NaCl, 0.5% surfactant P20, 3 mM EDTA, pH 7.4); steady-state affinity model. (In SPR one partner is held on a chip, and binding of the other changes the refractive index at the surface.)

The target of test [2] is hAPN ectodomain E742A mutant (human) (UniProt P15144). The test is described as above.
Test [3] concerns the target hAPN ectodomain Y316A mutant (human) (UniProt P15144). Described as above.
Test [4] deals with human aminopeptidase N (hAPN) ectodomain, residues 62-963, wild type (UniProt P15144). The test is described as above.
Test [5] addresses porcine aminopeptidase N (pAPN) ectodomain, residues 58-961, wild type (pig) (UniProt P15145). The test is described as above.
In test [6] the target is porcine aminopeptidase N ectodomain W424A (pig) (UniProt P15145). The experiment in a line: SPR; BIAcore X-100, room temperature; hAPN/pAPN WT or mutant immobilised on CM5 chips via amine coupling; serially diluted PDCoV RBD WT or mutant flowed over in HEPES buffer (0.01 M HEPES, 0.15 M NaCl, 0.5% surfactant P20, 3 mM EDTA, pH 7.4); steady-state affinity model; each of two experiments listed.

In test [7] the target is porcine aminopeptidase N ectodomain E421A (pig) (UniProt P15145). The test is described as above.
The target of test [8] is human aminopeptidase N ectodomain, wild type (human) (UniProt P15144). Described as above.
In test [9] the target is human aminopeptidase N ectodomain E426A (human) (UniProt P15144). The description is as above.
For test [10], the target named is human aminopeptidase N ectodomain H789A (human) (UniProt P15144). The description is as above.
In test [11] the target is porcine aminopeptidase N ectodomain, wild type (pig) (UniProt P15145). Described as above.
Test [12] addresses human aminopeptidase N ectodomain E745A (human) (UniProt P15144). Described as above.
Test [13] addresses human aminopeptidase N ectodomain E742A (human) (UniProt P15144). The description is as above.
The target of test [14] is human aminopeptidase N ectodomain Y316A (human) (UniProt P15144). Described as above.
Test [15] concerns the target human aminopeptidase N ectodomain W429A (human) (UniProt P15144). The test is described as above.
The target in test [16] is human aminopeptidase N ectodomain K379A (human) (UniProt P15144). The description is as above.
Test [17] concerns the target porcine aminopeptidase N ectodomain W424A (pig) (UniProt P15145). The test is described as follows: SPR; hAPN/pAPN WT or mutant immobilised on CM5 chips by amine coupling; serially diluted PDCoV RBD WT or mutant flowed over; BIAcore X-100, room temperature; 0.01 M HEPES, 0.15 M NaCl, 0.5% surfactant P20, 3 mM EDTA, pH 7.4; steady-state affinity model.
The target of test [18] is porcine aminopeptidase N ectodomain E421A (pig) (UniProt P15145). The description is as above.
Test [19] addresses human aminopeptidase N ectodomain E426A (human) (UniProt P15144). Described as above.
For test [20], the target named is human aminopeptidase N ectodomain H789A (human) (UniProt P15144). Described as above.
Test [21] concerns the target human aminopeptidase N ectodomain E745A (human) (UniProt P15144). Described as above.
The target in test [22] is human aminopeptidase N ectodomain E742A (human) (UniProt P15144). Described as above.
In test [23] the target is human aminopeptidase N ectodomain Y316A (human) (UniProt P15144). Described as above.
The target in test [24] is human aminopeptidase N ectodomain W429A (human) (UniProt P15144). Described as above.
Test [25] has as its target human aminopeptidase N ectodomain K379A (human) (UniProt P15144). Described as above.
For test [26], the target named is human aminopeptidase N ectodomain, wild type (human) (UniProt P15144). The test is described as above.
Test [27] deals with porcine aminopeptidase N ectodomain, wild type (pig) (UniProt P15145). The description is as above.

Several values for one entry are separate records, joined by “and”; a condition that tells them apart may be missing. Equal values may be shown once.

Sequence of human aminopeptidase N ectodomain E742A (human) (P15144 62-963 E742A): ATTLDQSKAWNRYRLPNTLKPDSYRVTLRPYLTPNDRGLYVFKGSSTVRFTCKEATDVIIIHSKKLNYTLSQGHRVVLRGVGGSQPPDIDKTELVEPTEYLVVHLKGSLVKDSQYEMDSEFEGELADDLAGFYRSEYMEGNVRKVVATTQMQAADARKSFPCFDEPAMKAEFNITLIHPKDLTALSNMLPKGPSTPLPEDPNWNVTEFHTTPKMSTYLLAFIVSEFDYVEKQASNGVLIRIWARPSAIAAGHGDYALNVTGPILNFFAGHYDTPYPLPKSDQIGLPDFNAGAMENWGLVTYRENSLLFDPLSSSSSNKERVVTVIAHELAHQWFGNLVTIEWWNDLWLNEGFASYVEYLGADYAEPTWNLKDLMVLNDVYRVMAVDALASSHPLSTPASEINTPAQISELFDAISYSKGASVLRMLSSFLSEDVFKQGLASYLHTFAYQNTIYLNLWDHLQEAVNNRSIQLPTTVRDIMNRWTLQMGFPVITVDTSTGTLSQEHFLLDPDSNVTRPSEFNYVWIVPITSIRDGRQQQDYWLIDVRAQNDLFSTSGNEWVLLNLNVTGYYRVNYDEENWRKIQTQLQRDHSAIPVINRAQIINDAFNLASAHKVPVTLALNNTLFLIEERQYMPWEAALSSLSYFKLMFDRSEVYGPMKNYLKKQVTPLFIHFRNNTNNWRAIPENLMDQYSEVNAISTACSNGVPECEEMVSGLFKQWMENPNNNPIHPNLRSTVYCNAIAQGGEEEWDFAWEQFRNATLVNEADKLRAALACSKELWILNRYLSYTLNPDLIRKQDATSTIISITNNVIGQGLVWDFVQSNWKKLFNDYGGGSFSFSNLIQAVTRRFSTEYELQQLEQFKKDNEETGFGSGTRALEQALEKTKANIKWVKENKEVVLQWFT
Sequence of human aminopeptidase N ectodomain Y316A (human) (P15144 62-963 Y316A): as the sequence (P15144 62-963 E742A) above, with Y255A, A681E counted along it
Sequence of human aminopeptidase N ectodomain, wild type (human) (P15144 62-963): as the sequence (P15144 62-963 E742A) above, with A681E counted along it
Sequence of human aminopeptidase N ectodomain H789A (human) (P15144 62-963 H789A): as the sequence (P15144 62-963 E742A) above, with A681E, H728A counted along it
Sequence of porcine aminopeptidase N ectodomain, wild type (pig) (P15145 58-961): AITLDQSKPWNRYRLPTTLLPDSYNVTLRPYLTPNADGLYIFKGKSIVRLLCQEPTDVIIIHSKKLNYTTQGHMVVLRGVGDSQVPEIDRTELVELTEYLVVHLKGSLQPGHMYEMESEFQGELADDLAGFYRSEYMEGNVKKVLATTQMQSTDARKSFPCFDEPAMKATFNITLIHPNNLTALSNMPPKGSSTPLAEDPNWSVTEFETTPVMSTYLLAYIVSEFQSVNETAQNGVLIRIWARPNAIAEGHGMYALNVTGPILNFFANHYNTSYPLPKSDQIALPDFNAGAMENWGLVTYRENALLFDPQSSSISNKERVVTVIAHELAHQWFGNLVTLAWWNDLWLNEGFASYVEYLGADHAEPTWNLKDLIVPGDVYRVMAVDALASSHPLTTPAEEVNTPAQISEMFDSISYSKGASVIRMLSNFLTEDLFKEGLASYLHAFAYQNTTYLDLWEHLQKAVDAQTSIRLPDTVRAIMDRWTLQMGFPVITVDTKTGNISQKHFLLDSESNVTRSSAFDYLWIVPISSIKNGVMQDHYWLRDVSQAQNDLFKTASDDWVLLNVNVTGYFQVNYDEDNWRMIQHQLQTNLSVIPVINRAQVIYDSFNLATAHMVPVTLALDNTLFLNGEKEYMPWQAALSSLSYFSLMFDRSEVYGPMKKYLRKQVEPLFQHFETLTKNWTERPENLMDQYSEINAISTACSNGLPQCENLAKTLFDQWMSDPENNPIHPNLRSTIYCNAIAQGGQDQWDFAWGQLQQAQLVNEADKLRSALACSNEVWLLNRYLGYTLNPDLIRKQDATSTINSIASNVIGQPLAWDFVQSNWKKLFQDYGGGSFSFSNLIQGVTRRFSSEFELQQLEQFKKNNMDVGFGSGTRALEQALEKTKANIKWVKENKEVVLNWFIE
Sequence of porcine aminopeptidase N ectodomain E421A (pig) (P15145 58-961 E421A): as the sequence (P15145 58-961) above, with E364A counted along it
Sequence of human aminopeptidase N ectodomain W429A (human) (P15144 62-963 W429A): as the sequence (P15144 62-963 E742A) above, with W368A, A681E counted along it
Sequence of human aminopeptidase N ectodomain E426A (human) (P15144 62-963 E426A): as the sequence (P15144 62-963 E742A) above, with E365A, A681E counted along it
Sequence of human aminopeptidase N ectodomain K379A (human) (P15144 62-963 K379A): as the sequence (P15144 62-963 E742A) above, with K318A, A681E counted along it
Sequence of porcine aminopeptidase N ectodomain W424A (pig) (P15145 58-961 W424A): as the sequence (P15145 58-961) above, with W367A counted along it
Sequence of human aminopeptidase N ectodomain E745A (human) (P15144 62-963 E745A): as the sequence (P15144 62-963 E742A) above, with A681E, E684A counted along it
Sequence of hAPN ectodomain E742A mutant (human) (P15144 62-963 E742A): as the sequence (P15144 62-963 E742A) above
Sequence of hAPN ectodomain Y316A mutant (human) (P15144 62-963 Y316A): as the sequence (P15144 62-963 E742A) above, with Y255A, A681E counted along it
Sequence of human aminopeptidase N (hAPN) ectodomain, residues 62-963, wild type (P15144 62-963): as the sequence (P15144 62-963 E742A) above, with A681E counted along it
Sequence of porcine aminopeptidase N (pAPN) ectodomain, residues 58-961, wild type (pig) (P15145 58-961): as the sequence (P15145 58-961) above
Sequence of hAPN ectodomain K379A mutant (human) (P15144 62-963 K379A): as the sequence (P15144 62-963 E742A) above, with K318A, A681E counted along it

Regarding “PDCoV spike (S) protein receptor binding domain (RBD), residues 300-419, wild type (domain or fragment)”, the dissociation constant Kd stood at 100 µM in [1] and 1 µM in test [4]. Further, the fold decrease in affinity against wild-type hAPN came to 4 fold in test [2] and 10 fold in test [3]. Further, the fold lower affinity than to hAPN in [5] is 10 fold.

As for “PDCoV RBD (receptor binding domain of the porcine deltacoronavirus spike protein), wild type (domain or fragment)”, the Kd in [6] was 113 µM and 119 µM; in [7], 103 µM and 146 µM; in test [8], 3.76 µM and 3.66 µM; in test [9], 305 µM and 362 µM; in test [10] it was 6.47 µM and 6.03 µM; in [11], 42 µM and 46.5 µM. In addition, the Kd in test [12] was 3.13 µM and 3 µM; in test [13], 14.3 µM and 13.2 µM; in test [14] it was 35.7 µM and 38.5 µM; in [15] it was 158 µM and 97 µM; in test [16], 516 µM and 371 µM.

Take “PDCoV spike protein receptor binding domain, wild type (domain or fragment)”: the Kd in [17] was 113 µM and 119 µM; in test [18], 103 µM and 146 µM; in test [19], 305 µM and 362 µM; in test [20], 6.47 µM and 6.03 µM; in test [21], 3.13 µM and 3 µM; in test [22] it was 14.3 µM and 13.2 µM. Moreover, the Kd in test [23] was 35.7 µM and 38.5 µM; in test [24], 158 µM and 97 µM; in test [25], 371 µM and 516 µM; in test [26] it was 3.76 µM and 3.66 µM; in [27], 42 µM and 46.5 µM.
